# Reference: FireProtDB (doi:10.1021/bi002812d)
# Where “and” joins values, the source holds several entries; their conditions need not be identical. Equal values may be shown once.
# B1: Cyclin-dependent kinases regulatory subunit, P08463 (parent)
# chain: MSKSGVPRLLTASERERLEPFIDQIHYSPRYADDEYEYRHVMLPKAMLKAIPTDYFNPETGTLRILQEEEWRGLGITQSLGWEMYEVHVPEPHILLFKREKDYQMKFSQQRGG
# Variants of: B1
# Conditions: Schizosaccharomyces pombe (strain 972 / ATCC 24843), pH 7.1, 25 °C, GdnHCl, Fluorescence, Tris-HCl, NaCl, reversible: yes, structure 1SCE, whole UniProt chain shown
Variant,denaturant m value (transition: 2+2) [kcal/mol/M],denaturant midpoint (higher = more stable) (transition: 2+2) [M],unfolding free energy (transition: 2+2) [kcal/mol],denaturant m value (transition: 2),denaturant midpoint (higher = more stable) (transition: 2),unfolding free energy (transition: 2),denaturant m value (transition: 3),denaturant midpoint (higher = more stable) (transition: 3),ddG of mutation (higher = less stable) (transition: 2)
P90V P92V,1.88,4.14,7.8,3.42 kcal/mol/M and 3.31 kcal/mol/M,2.04 M and 1.67 M,6.97 kcal/mol and 5.52 kcal/mol,1.7 kcal/mol/M and 3.39 kcal/mol/M,0.74 M and 2.08 M,–
P90V,–,–,–,3.42 kcal/mol/M and 3.55 kcal/mol/M,1.96 M and 1.9 M,6.71 kcal/mol and 6.74 kcal/mol,–,–,0.63 kcal/mol and 0.62 kcal/mol
P92V,–,–,–,3.85 kcal/mol/M and 3.55 kcal/mol/M,1.86 M and 2.05 M,7.16 kcal/mol and 7.28 kcal/mol,–,–,0.18 kcal/mol and 0.08 kcal/mol
